This series deals with NTH-RNase E wild type (Escherichia coli (K12, P21513-1 in alignment)) (UniProt P21513). Briefly: competition. The note with it: competitor of 7.5 nM BR15 quadruplex, 20 nM NTH, 25 mM bis-Tris propane pH 8.3, 100 mM KCl, 15 mM CaCl2, 0.1% (v/v) Triton X-100, 1 mM DTT, 20% (v/v) glycerol, 37 C 20 min, 1% agarose gel in 1x TBE.

Bounds are passed on as bounds.

As for glnW-metU segment, the IC50 was determined as 229 nM. This lies in the sub-micromolar range. Turning to “glnW-tRNA (no flanking single-stranded regions)”, where the note is “does not compete effectively”, the IC50 is more than 2500 nM. “metU-tRNA with 5' and 3' single-stranded regions” returned an IC50 of 147 nM.

By IC50 is commonly meant the midpoint of a concentration-inhibition curve.

The values are drawn from publication PMC9841416.
